The results in this text go back to patent publication US20190328766, “COMPOSITIONS AND METHODS FOR SUPPRESSING MSUT2” (United States Government As Represented By The Department …, published 2019).

Data set [1] concerns the target T1, GST-MSUT2 (UniProt Q6PJT7 Q6PJT7:595-719).
T1 sequence: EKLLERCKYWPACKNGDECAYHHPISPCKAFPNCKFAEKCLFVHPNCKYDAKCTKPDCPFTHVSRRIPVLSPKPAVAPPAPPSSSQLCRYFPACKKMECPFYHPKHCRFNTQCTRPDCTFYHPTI
Nature of the data set: AlphaScreen; 25 mM HEPES, 100 mM NaCl, 0.04% casein, 0.2% Triton X-100, pH 7.4, room temp; inhibited by ebselen. To be noted: tags: GST fusion; label: 5' TEG-Biotin (IDT). As for the experimental part: The steps and set up for performing the ALPHA assay for MSUT2 binding to polyA are as follows: [0229] 1. Dilutions are in assay buffer (1×PAMA final concentration). [0230] 2. Scale is for 96 well assay in PE […] ½ area plate (total volume/well is 50 μL). [0231] 3. Assays set up in low light conditions [0232] 4. Add 20 μL of diluted donor bead (10 ug/mL) to well bringing well volume to 20 μL [0233] 5. Add 10 μL diluted biotin RNA (15 nM)) bringing well volume to 30 μL [0234] 6. Add 10 μL diluted GST-MSUT2 Protein (125 nM)) bringing well volume to 40 μL [0235] 7. Incubate at room temp for 30 minutes in the dark [0236] 8. […] 9. Incubate at room temp for 60 minutes in the dark [0238] 10. Read Plate using standard AlphaAssay settings on Perkin Elmer EnSpire® Alpha microplate reader

For another data set, the target named is T2, PABPN1 (Homo sapiens, UniProt Q86U42 Q86U42:1-306).
T2 sequence: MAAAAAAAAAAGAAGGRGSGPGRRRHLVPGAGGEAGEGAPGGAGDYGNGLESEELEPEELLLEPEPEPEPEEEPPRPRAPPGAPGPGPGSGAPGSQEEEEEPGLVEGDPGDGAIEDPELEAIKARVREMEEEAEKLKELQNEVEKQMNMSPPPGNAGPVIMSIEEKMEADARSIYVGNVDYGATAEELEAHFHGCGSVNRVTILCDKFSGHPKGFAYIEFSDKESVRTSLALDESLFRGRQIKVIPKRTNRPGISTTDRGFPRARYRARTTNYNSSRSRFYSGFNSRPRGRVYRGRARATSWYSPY
The data set can be described thus: SPR; Biacore T200, biotin capture, from kinetics at 0.6-1 uM protein. The following applies: tags: GST fusion (pGEX6P-1), E. coli BL21(DE3), benzonase treated; label: 5' BiotinTEG. As for the experimental part:
(§1) SPR experiments were conducted on a Biacore T200 using the Biotin Capture Kit Series S following the manufacturer's instructions (GE). Biotin capture reagent was applied to the sensor chip at a flow rate of 2 μl/minute for 300 seconds. 1 nM biotinylated RNA (BiotinTEG-[…]; SEQ ID NO: 25) was captured at a flow rate of 10 μl/minute for 180 seconds. Samples were flowed across the sensor chip at 50 μl/minute for 120 seconds and the chip was regenerated for 120 seconds at a flow rate of 10 μl/minute.

The target of data set [2] is T3, MSUT2 (ZC3H14) CCCH zinc finger domain (Homo sapiens, UniProt Q6PJT7 Q6PJT7:595-719).
T3 chain: T1 sequence
Described as above. To be noted: tags: GST fusion (pGEX6P-1), E. coli BL21(DE3), benzonase treated; label: 5' BiotinTEG. As for the experimental part:
as §1

Data set [3] concerns the target T1, GST-MSUT2. Nature of the data set: FP; dose-dependent polarization increase. To be noted: tags: GST fusion; label: fluorescein (FAM).

B1: biotin-poly(A)20 (ssRNA)
RNA: AAAAAAAAAAAAAAAAAAAA
Take B1: the binding result with GST-MSUT2 [1] is on record as “binds”.

B2: biotin-poly(A)15 (ssRNA)
RNA: AAAAAAAAAAAAAAA
For B2, the Kd in the data set with PABPN1 was found to be 237 nM; in data set [2], 60 nM.

B3: FAM-PolyA15 (ssRNA)
RNA: AAAAAAAAAAAAAAA
Consider B3, for which the binding result with GST-MSUT2 [3] was “binds”.
